T1: Human CD3eg linker (human)
T1 construct: Single chain: epsilon and gamma subunits of human CD3 joined by a 29-mer linker, Flag-tag at the C-terminus; also called recombinant human CD3
T1 chain: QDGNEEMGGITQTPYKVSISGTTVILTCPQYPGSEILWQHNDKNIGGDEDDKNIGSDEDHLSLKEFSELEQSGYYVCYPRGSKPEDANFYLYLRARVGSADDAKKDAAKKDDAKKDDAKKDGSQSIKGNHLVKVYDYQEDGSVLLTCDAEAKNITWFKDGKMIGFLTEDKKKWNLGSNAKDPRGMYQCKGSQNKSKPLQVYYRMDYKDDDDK


Molecular target: T1, Human CD3eg linker
Assay: Biacore SPR, vs template H183/L072

Row | Binder | fold change of affinity
1 | H183/L072 VH K52bS (antibody, name in Kabat numbering, V domains shown) VH: QVQLVESGGGLVQPGRSLRLSCAASGFTFSNAWMHWVRQAPGKGLEWVAQIKDSGNAYAAYYAPSVKGRFTISRDDSKNSIYLQMNSLKTEDTAVYYCHYVHYASASTVLPAFGVDAWGQGTTVTVSS VL: DIVMTQSPLSLPVTPGEPASISCQASQELVHMNRNTYLHWYQQKPGQAPRLLIYKVSNRFPGVPDRFSGSGSGTDFTLKISRVEAEDVGVYYCAQGTSVPFTFGQGTKLEIK | 0.7 fold
2 | H183/L072 VH K64I (antibody, name in Kabat numbering, V domains shown) VH: QVQLVESGGGLVQPGRSLRLSCAASGFTFSNAWMHWVRQAPGKGLEWVAQIKDKGNAYAAYYAPSVIGRFTISRDDSKNSIYLQMNSLKTEDTAVYYCHYVHYASASTVLPAFGVDAWGQGTTVTVSS VL: DIVMTQSPLSLPVTPGEPASISCQASQELVHMNRNTYLHWYQQKPGQAPRLLIYKVSNRFPGVPDRFSGSGSGTDFTLKISRVEAEDVGVYYCAQGTSVPFTFGQGTKLEIK | 1 fold
3 | H183/L072 VH K52bV (antibody, name in Kabat numbering, V domains shown) VH: QVQLVESGGGLVQPGRSLRLSCAASGFTFSNAWMHWVRQAPGKGLEWVAQIKDVGNAYAAYYAPSVKGRFTISRDDSKNSIYLQMNSLKTEDTAVYYCHYVHYASASTVLPAFGVDAWGQGTTVTVSS VL: DIVMTQSPLSLPVTPGEPASISCQASQELVHMNRNTYLHWYQQKPGQAPRLLIYKVSNRFPGVPDRFSGSGSGTDFTLKISRVEAEDVGVYYCAQGTSVPFTFGQGTKLEIK | 0.6 fold
4 | H183/L072 VH K52bW (antibody, name in Kabat numbering, V domains shown) VH: QVQLVESGGGLVQPGRSLRLSCAASGFTFSNAWMHWVRQAPGKGLEWVAQIKDWGNAYAAYYAPSVKGRFTISRDDSKNSIYLQMNSLKTEDTAVYYCHYVHYASASTVLPAFGVDAWGQGTTVTVSS VL: DIVMTQSPLSLPVTPGEPASISCQASQELVHMNRNTYLHWYQQKPGQAPRLLIYKVSNRFPGVPDRFSGSGSGTDFTLKISRVEAEDVGVYYCAQGTSVPFTFGQGTKLEIK | 0.6 fold
5 | H183/L072 VH K64A (antibody, name in Kabat numbering, V domains shown) VH: QVQLVESGGGLVQPGRSLRLSCAASGFTFSNAWMHWVRQAPGKGLEWVAQIKDKGNAYAAYYAPSVAGRFTISRDDSKNSIYLQMNSLKTEDTAVYYCHYVHYASASTVLPAFGVDAWGQGTTVTVSS VL: DIVMTQSPLSLPVTPGEPASISCQASQELVHMNRNTYLHWYQQKPGQAPRLLIYKVSNRFPGVPDRFSGSGSGTDFTLKISRVEAEDVGVYYCAQGTSVPFTFGQGTKLEIK | 1 fold
6 | H183/L072 VH K64L (antibody, name in Kabat numbering, V domains shown) VH: QVQLVESGGGLVQPGRSLRLSCAASGFTFSNAWMHWVRQAPGKGLEWVAQIKDKGNAYAAYYAPSVLGRFTISRDDSKNSIYLQMNSLKTEDTAVYYCHYVHYASASTVLPAFGVDAWGQGTTVTVSS VL: DIVMTQSPLSLPVTPGEPASISCQASQELVHMNRNTYLHWYQQKPGQAPRLLIYKVSNRFPGVPDRFSGSGSGTDFTLKISRVEAEDVGVYYCAQGTSVPFTFGQGTKLEIK | 1.1 fold
7 | H183/L072 VH K64M (antibody, name in Kabat numbering, V domains shown) VH: QVQLVESGGGLVQPGRSLRLSCAASGFTFSNAWMHWVRQAPGKGLEWVAQIKDKGNAYAAYYAPSVMGRFTISRDDSKNSIYLQMNSLKTEDTAVYYCHYVHYASASTVLPAFGVDAWGQGTTVTVSS VL: DIVMTQSPLSLPVTPGEPASISCQASQELVHMNRNTYLHWYQQKPGQAPRLLIYKVSNRFPGVPDRFSGSGSGTDFTLKISRVEAEDVGVYYCAQGTSVPFTFGQGTKLEIK | 1.1 fold
8 | H183/L072 VH K52bY (antibody, name in Kabat numbering, V domains shown) VH: QVQLVESGGGLVQPGRSLRLSCAASGFTFSNAWMHWVRQAPGKGLEWVAQIKDYGNAYAAYYAPSVKGRFTISRDDSKNSIYLQMNSLKTEDTAVYYCHYVHYASASTVLPAFGVDAWGQGTTVTVSS VL: DIVMTQSPLSLPVTPGEPASISCQASQELVHMNRNTYLHWYQQKPGQAPRLLIYKVSNRFPGVPDRFSGSGSGTDFTLKISRVEAEDVGVYYCAQGTSVPFTFGQGTKLEIK | 0.7 fold
9 | H183/L072 VH K52bT (antibody, name in Kabat numbering, V domains shown) VH: QVQLVESGGGLVQPGRSLRLSCAASGFTFSNAWMHWVRQAPGKGLEWVAQIKDTGNAYAAYYAPSVKGRFTISRDDSKNSIYLQMNSLKTEDTAVYYCHYVHYASASTVLPAFGVDAWGQGTTVTVSS VL: DIVMTQSPLSLPVTPGEPASISCQASQELVHMNRNTYLHWYQQKPGQAPRLLIYKVSNRFPGVPDRFSGSGSGTDFTLKISRVEAEDVGVYYCAQGTSVPFTFGQGTKLEIK | 0.3 fold

Second part, the binder after the results:

Row | fold change of affinity | Binder
10 | 0 fold | H183/L072 VH M34G (antibody, name in Kabat numbering, V domains shown) VH: QVQLVESGGGLVQPGRSLRLSCAASGFTFSNAWGHWVRQAPGKGLEWVAQIKDKGNAYAAYYAPSVKGRFTISRDDSKNSIYLQMNSLKTEDTAVYYCHYVHYASASTVLPAFGVDAWGQGTTVTVSS VL: DIVMTQSPLSLPVTPGEPASISCQASQELVHMNRNTYLHWYQQKPGQAPRLLIYKVSNRFPGVPDRFSGSGSGTDFTLKISRVEAEDVGVYYCAQGTSVPFTFGQGTKLEIK
11 | 0.1 fold | H183/L072 VH M34F (antibody, name in Kabat numbering, V domains shown) VH: QVQLVESGGGLVQPGRSLRLSCAASGFTFSNAWFHWVRQAPGKGLEWVAQIKDKGNAYAAYYAPSVKGRFTISRDDSKNSIYLQMNSLKTEDTAVYYCHYVHYASASTVLPAFGVDAWGQGTTVTVSS VL: DIVMTQSPLSLPVTPGEPASISCQASQELVHMNRNTYLHWYQQKPGQAPRLLIYKVSNRFPGVPDRFSGSGSGTDFTLKISRVEAEDVGVYYCAQGTSVPFTFGQGTKLEIK
12 | 1.2 fold | H183/L072 VH L100dA (antibody, name in Kabat numbering, V domains shown) VH: QVQLVESGGGLVQPGRSLRLSCAASGFTFSNAWMHWVRQAPGKGLEWVAQIKDKGNAYAAYYAPSVKGRFTISRDDSKNSIYLQMNSLKTEDTAVYYCHYVHYASASTVAPAFGVDAWGQGTTVTVSS VL: DIVMTQSPLSLPVTPGEPASISCQASQELVHMNRNTYLHWYQQKPGQAPRLLIYKVSNRFPGVPDRFSGSGSGTDFTLKISRVEAEDVGVYYCAQGTSVPFTFGQGTKLEIK
13 | 0 fold | H183/L072 VH M34E (antibody, name in Kabat numbering, V domains shown) VH: QVQLVESGGGLVQPGRSLRLSCAASGFTFSNAWEHWVRQAPGKGLEWVAQIKDKGNAYAAYYAPSVKGRFTISRDDSKNSIYLQMNSLKTEDTAVYYCHYVHYASASTVLPAFGVDAWGQGTTVTVSS VL: DIVMTQSPLSLPVTPGEPASISCQASQELVHMNRNTYLHWYQQKPGQAPRLLIYKVSNRFPGVPDRFSGSGSGTDFTLKISRVEAEDVGVYYCAQGTSVPFTFGQGTKLEIK
14 | 0 fold | H183/L072 VH M34D (antibody, name in Kabat numbering, V domains shown) VH: QVQLVESGGGLVQPGRSLRLSCAASGFTFSNAWDHWVRQAPGKGLEWVAQIKDKGNAYAAYYAPSVKGRFTISRDDSKNSIYLQMNSLKTEDTAVYYCHYVHYASASTVLPAFGVDAWGQGTTVTVSS VL: DIVMTQSPLSLPVTPGEPASISCQASQELVHMNRNTYLHWYQQKPGQAPRLLIYKVSNRFPGVPDRFSGSGSGTDFTLKISRVEAEDVGVYYCAQGTSVPFTFGQGTKLEIK
15 | 1.2 fold | H183/L072 VH L100dI (antibody, name in Kabat numbering, V domains shown) VH: QVQLVESGGGLVQPGRSLRLSCAASGFTFSNAWMHWVRQAPGKGLEWVAQIKDKGNAYAAYYAPSVKGRFTISRDDSKNSIYLQMNSLKTEDTAVYYCHYVHYASASTVIPAFGVDAWGQGTTVTVSS VL: DIVMTQSPLSLPVTPGEPASISCQASQELVHMNRNTYLHWYQQKPGQAPRLLIYKVSNRFPGVPDRFSGSGSGTDFTLKISRVEAEDVGVYYCAQGTSVPFTFGQGTKLEIK
16 | 0 fold | H183/L072 VH M34A (antibody, name in Kabat numbering, V domains shown) VH: QVQLVESGGGLVQPGRSLRLSCAASGFTFSNAWAHWVRQAPGKGLEWVAQIKDKGNAYAAYYAPSVKGRFTISRDDSKNSIYLQMNSLKTEDTAVYYCHYVHYASASTVLPAFGVDAWGQGTTVTVSS VL: DIVMTQSPLSLPVTPGEPASISCQASQELVHMNRNTYLHWYQQKPGQAPRLLIYKVSNRFPGVPDRFSGSGSGTDFTLKISRVEAEDVGVYYCAQGTSVPFTFGQGTKLEIK
17 | 0 fold | H183/L072 VH M34H (antibody, name in Kabat numbering, V domains shown) VH: QVQLVESGGGLVQPGRSLRLSCAASGFTFSNAWHHWVRQAPGKGLEWVAQIKDKGNAYAAYYAPSVKGRFTISRDDSKNSIYLQMNSLKTEDTAVYYCHYVHYASASTVLPAFGVDAWGQGTTVTVSS VL: DIVMTQSPLSLPVTPGEPASISCQASQELVHMNRNTYLHWYQQKPGQAPRLLIYKVSNRFPGVPDRFSGSGSGTDFTLKISRVEAEDVGVYYCAQGTSVPFTFGQGTKLEIK
18 | 1 fold | H183/L072 VH L100dM (antibody, name in Kabat numbering, V domains shown) VH: QVQLVESGGGLVQPGRSLRLSCAASGFTFSNAWMHWVRQAPGKGLEWVAQIKDKGNAYAAYYAPSVKGRFTISRDDSKNSIYLQMNSLKTEDTAVYYCHYVHYASASTVMPAFGVDAWGQGTTVTVSS VL: DIVMTQSPLSLPVTPGEPASISCQASQELVHMNRNTYLHWYQQKPGQAPRLLIYKVSNRFPGVPDRFSGSGSGTDFTLKISRVEAEDVGVYYCAQGTSVPFTFGQGTKLEIK
19 | 1.6 fold | H183/L072 VH K64P (antibody, name in Kabat numbering, V domains shown) VH: QVQLVESGGGLVQPGRSLRLSCAASGFTFSNAWMHWVRQAPGKGLEWVAQIKDKGNAYAAYYAPSVPGRFTISRDDSKNSIYLQMNSLKTEDTAVYYCHYVHYASASTVLPAFGVDAWGQGTTVTVSS VL: DIVMTQSPLSLPVTPGEPASISCQASQELVHMNRNTYLHWYQQKPGQAPRLLIYKVSNRFPGVPDRFSGSGSGTDFTLKISRVEAEDVGVYYCAQGTSVPFTFGQGTKLEIK
20 | 1.4 fold | H183/L072 VH L100dP (antibody, name in Kabat numbering, V domains shown) VH: QVQLVESGGGLVQPGRSLRLSCAASGFTFSNAWMHWVRQAPGKGLEWVAQIKDKGNAYAAYYAPSVKGRFTISRDDSKNSIYLQMNSLKTEDTAVYYCHYVHYASASTVPPAFGVDAWGQGTTVTVSS VL: DIVMTQSPLSLPVTPGEPASISCQASQELVHMNRNTYLHWYQQKPGQAPRLLIYKVSNRFPGVPDRFSGSGSGTDFTLKISRVEAEDVGVYYCAQGTSVPFTFGQGTKLEIK
